Measured values as given in patent publication US20220204602A1 (University of Pennsylvania, published 2022).

B1: Cyno FcRn (receptor, Cynomolgus)
chain 1: AESHLSLLYHLTAVSSPAPGTPAFWVSGWLGPQQYLSYDSLRGQAEPCGAWVWENQVSWYWEKETTDLRIKEKLFLEAFKALGGKGPYTLQGLLGCELSPDNTSVPTAKFALNGEEFMNFDLKQGTWGGDWPEALAISQRWQQQDKAANKELTFLLFSCPHRLREHLERGRGNLEWKEPPSMRLKARPGNPGFSVLTCSAFSFYPPELQLRFLRNGMAAGTGQGDFGPNSDGSFHASSSLTVKSGDEHHYCCIVQHAGLAQPLRVELETPAKSS
chain 2: IQRTPKIQVYSRHPPENGKPNFLNCYVSGFHPSDIEVDLLKNGEKMGKVEHSDLSFSKDWSFYLLYYTEFTPNEKDEYACRVNHVTLSGPRTVKWDRDM
notes: also called Cynomolgus FcRn; purified Cyno FcRn
B2: anti-C5 mAb FMEH-IgG4PLA (antibody)
heavy: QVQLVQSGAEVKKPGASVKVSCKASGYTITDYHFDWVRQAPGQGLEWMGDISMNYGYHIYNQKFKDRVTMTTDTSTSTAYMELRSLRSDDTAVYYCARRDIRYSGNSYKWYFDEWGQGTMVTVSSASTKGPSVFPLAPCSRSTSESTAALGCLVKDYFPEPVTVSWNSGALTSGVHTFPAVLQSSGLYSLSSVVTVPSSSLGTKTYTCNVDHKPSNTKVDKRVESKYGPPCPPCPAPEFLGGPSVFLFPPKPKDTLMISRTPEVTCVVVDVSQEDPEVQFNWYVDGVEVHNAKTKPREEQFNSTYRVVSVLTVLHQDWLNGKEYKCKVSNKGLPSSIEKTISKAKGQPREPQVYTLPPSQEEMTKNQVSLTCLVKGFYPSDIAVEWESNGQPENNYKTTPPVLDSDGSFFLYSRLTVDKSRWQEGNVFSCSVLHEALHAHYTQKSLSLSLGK
light: DIQLTQSPSFLSASVGDRVTITCRTSKSISKHLAWYQQKPGKAPKLLIYSGSTLQSGVPSRFSGSGSGTEFTLTISSLQPEDFATYYCQQHNEYPYTFGQGTKLEIK
notes: also called FMEH PLA; FMEH-PLA; not shown: human light chain constant region

Tests used:
[1] = molecular target: T1, anti-C5 mAb/FH SCR1-5 fusion protein FMEH-IgG4PLA-FH1-5 (human, UniProt P08603 19-322, limits assumed); assay: SPR (Biacore-3000), Cyno FcRn amine-coupled on CM5 chip (200 RU), fusion protein as analyte, pH 6.0, bivalent binding model
T1 construct: domain: SCR 1-5; also called FMEH-FH1-5; FMEH-IgG4PLA-FH SCR1-5; not shown: human light chain constant region

[2] = molecular target: T2, human FcRn (human, UniProt P55899 24-297; P61769 21-119, limits assumed); assay: SPR (Biacore-3000), human FcRn amine-coupled on CM5 chip (280 RU), antibody as analyte, pH 6.0, bivalent binding model
T2 construct: also called purified human FcRn
Procedure: Biacore analysis was performed on a Biacore-3000 instrument. The chip was regenerated between each binding using 7.4 pH Buffer.
The carboxylated dextran matrix of a CM5 sensor chip was used to couple the purified human or Cyno FcRn, by amine coupling chemistry to obtain 280 RU or 200 RU surface density, respectively. […] The data were analyzed by the BIA evaluation software 3.2 assuming bivalent binding model.

[3] = molecular target: B1; assay: SPR (Biacore-3000), Cyno FcRn amine-coupled on CM5 chip (200 RU), antibody as analyte, pH 6.0, bivalent binding model
Procedure: Purified Cyno FcRn was coupled onto CM5 chip using the amine coupling method(200RU). Biacore analysis was performed on a Biacore-3000 instrument. The chip was regenerated between each binding using 7.4 pH Buffer.
Affinity analysis of FMEH-IgG4PLA and FMEH-IgG4PLA-FH1-5 to human or Cynomolgus FcRn: Surface Plasmon resonance analysis was used to measure the association and dissociation rate constant for binding of FMEH-IgG4PLA and FMEH-IgG4PLA-FH1-5 to immobilized human or Cyno FcRn, using BIAcore 3000 instrument (Biacore AB, Uppsala, Sweden) and all Biacore experiments were performed at 25° C. The carboxylated dextran matrix of a CM5 sensor chip was used to couple the purified human or Cyno FcRn, by amine coupling chemistry to obtain 280 RU or 200 RU surface density, respectively. […] The data were analyzed by the BIA evaluation software 3.2 assuming bivalent binding model.

T1 sequence (P08603 other isoform, or with tags, fused parts or gaps limits assumed): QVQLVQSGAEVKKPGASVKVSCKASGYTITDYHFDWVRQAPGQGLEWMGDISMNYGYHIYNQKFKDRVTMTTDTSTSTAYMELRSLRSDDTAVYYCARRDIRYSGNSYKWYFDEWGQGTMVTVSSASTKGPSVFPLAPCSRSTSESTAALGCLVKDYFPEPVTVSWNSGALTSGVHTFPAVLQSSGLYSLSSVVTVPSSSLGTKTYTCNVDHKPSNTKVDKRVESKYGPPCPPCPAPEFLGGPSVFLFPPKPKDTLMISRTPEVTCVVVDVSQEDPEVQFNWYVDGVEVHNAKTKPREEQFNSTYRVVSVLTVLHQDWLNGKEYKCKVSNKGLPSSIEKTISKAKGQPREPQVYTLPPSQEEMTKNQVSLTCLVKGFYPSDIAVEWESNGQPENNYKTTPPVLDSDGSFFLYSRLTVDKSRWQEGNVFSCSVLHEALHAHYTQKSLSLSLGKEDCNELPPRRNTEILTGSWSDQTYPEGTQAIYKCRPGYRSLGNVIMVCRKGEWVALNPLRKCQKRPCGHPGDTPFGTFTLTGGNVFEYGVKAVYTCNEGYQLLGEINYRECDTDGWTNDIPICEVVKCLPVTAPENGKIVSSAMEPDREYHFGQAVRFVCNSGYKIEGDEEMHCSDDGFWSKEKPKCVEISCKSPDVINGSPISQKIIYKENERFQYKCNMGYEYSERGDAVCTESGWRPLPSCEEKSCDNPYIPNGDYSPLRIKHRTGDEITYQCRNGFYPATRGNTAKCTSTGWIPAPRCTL
T2 sequence (P61769 21-119 limits assumed, form in doubt, one chain of several): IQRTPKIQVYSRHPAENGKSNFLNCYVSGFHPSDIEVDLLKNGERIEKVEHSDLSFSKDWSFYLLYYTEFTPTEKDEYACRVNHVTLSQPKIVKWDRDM

Binder | Kd [1] [nM] | Kd [2] [nM] | Kd [3] [nM]
B1 | 39.1 |  | 
B2 |  | 6.47 | 14
